The values that follow come from paper PMC9159282, “Structural basis of human LRG1 recognition by Magacizumab, a humanized monoclonal antibody with therapeutic potential” (Acta Crystallographica. Section D, Structural Biology, 2022).

The assay deals with T1, 15-amino-acid peptide corresponding to the epitope in LRG1 (human).
T1 construct: leucine-rich alpha-2-glycoprotein 1 (LRG1), human; Gln5Pep is Gln225 of LRG1
T1 chain: GNKLQVLGKDLLLPQ
In words: crystal structure; co-crystallization at MagaFab:peptide molar ratios of 1:2 and 1:5, MagaFab 12 mg/ml, 0.2 M NaCl, 0.1 M bis-Tris pH 5.5, 25%(w/v) PEG 3350; two Fab and two peptide molecules per asymmetric unit. The following applies: both partners purified.

B1: Magacizumab Fab fragment (Fab, V domains shown)
VH: QVQLVQSGAEVKKPGSSVKVSCKASGYTFSGYWMNWVRQAPGQGLEWIGQIYPGDGDTNYNGKFKGRVTITADKSTSTAYMELSSLRSEDTAVYYCARSITTVVLDYWGQGTTVTVSS
VL: DIVLTQSPDSLAVSLGERATISCRASQSVSTSGYSFMHWYQQKPGQPPKLLIKYASNLESGVPARFSGSGSGTDFTLTISSLQPEDFATYYCQHSWEMPLTFGQGTKLEIK
notes: heavy (VH) chain of MagaFab is chain B (second copy: chain D) of the deposited structure PDB 7q4q; light (VL) chain of MagaFab is chain A (second copy: chain C) of the deposited structure PDB 7q4q; Fab of a humanized IgG4 derived from the mouse monoclonal antibody 15C4; Observed mass of the Fab 47 461 Da, computed 47 412 Da; also called MagaFab; source: Magacizumab: CHO cell-based expression …
Turning to B1, the binding result was “binds”.
